According to publication doi:10.1101/2020.07.21.214338:

How the values were obtained:
Assay in all cases: native gel or EMSA
[1] = molecular target: 147-bp nucleosome core particle (human | Xenopus laevis)
[2] = molecular target: 12x nucleosome array (human | Xenopus laevis)
[3] = molecular target: 209-bp nucleosome core particle (human | Xenopus laevis)

CBP core-ZZ-TAZ2 (domain or fragment)
Kd [1]: 1000 nM
Kd [2]: 309 nM
Kd [3]: 540 nM
